Data: the supplement of paper PMC9112550, “Optimization of the antimicrobial peptide Bac7 by deep mutational scanning” (BMC Biology, 2022)
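Also: peptides expressed intracellularly from a pBAD plasmid library in pooled LB shake-flask culture, induced with 0.3% L-arabinose, DNA abundance read by NGS, three biological replicates, DESeq2 with apeglm shrinkage.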

Each sequence was assayed on Escherichia coli TOP10 (assay: shrunken log2 fold change of peptide-encoding DNA abundance (4.5 h post-induction vs induction); higher = less antimicrobial activity (less host growth inhibition)). Details: time post-induction: 4.5 h; library: site-saturation at positions 5, 18, 19, 20.
In the case of RRIRMRPPRLPRPRPRPEGKPRP, the “shrunken log2 fold change” value is reported as 3.36.
With RRIRLRPPRLPRPRPRPIKDPRP the “shrunken log2 fold change” value was -0.374.
RRIRCRPPRLPRPRPRPECWPRP was tested, and the “shrunken log2 fold change” value was 0.669.
RRIRSRPPRLPRPRPRPDADPRP was tested, and the “shrunken log2 fold change” value was -0.0578.
In the case of RRIRRRPPRLPRPRPRPWFDPRP, the “shrunken log2 fold change” value is reported as -0.064.
RRIRNRPPRLPRPRPRPALGPRP was tested, and the “shrunken log2 fold change” value was -0.361.
RRIRKRPPRLPRPRPRPEKVPRP was tested, and the “shrunken log2 fold change” value was 0.112.
In the case of RRIRPRPPRLPRPRPRPVWNPRP, the “shrunken log2 fold change” value is reported as -0.109.
With RRIRTRPPRLPRPRPRPNPCPRP the “shrunken log2 fold change” value was 0.0479.
For RRIRQRPPRLPRPRPRPKWVPRP, the “shrunken log2 fold change” value was 0.0809.
RRIRKRPPRLPRPRPRPICKPRP was tested, and the “shrunken log2 fold change” value was 0.363.
In the case of RRIRYRPPRLPRPRPRPPRSPRP, the “shrunken log2 fold change” value is reported as -0.148.
In the case of RRIRSRPPRLPRPRPRPFQEPRP, the “shrunken log2 fold change” value is reported as -0.0528.
RRIRFRPPRLPRPRPRPIWYPRP was tested, and the “shrunken log2 fold change” value was 0.192.
RRIRERPPRLPRPRPRPVFQPRP was tested, and the “shrunken log2 fold change” value was -0.0545.
With RRIRSRPPRLPRPRPRPCCWPRP the “shrunken log2 fold change” value was -0.0914.
With RRIRIRPPRLPRPRPRPTVIPRP the “shrunken log2 fold change” value was -0.108.
RRIRSRPPRLPRPRPRPFQNPRP was tested, and the “shrunken log2 fold change” value was -0.3.
With RRIRIRPPRLPRPRPRPYHEPRP the “shrunken log2 fold change” value was -0.216.
With RRIRHRPPRLPRPRPRPLPTPRP the “shrunken log2 fold change” value was 0.245.
In the case of RRIRARPPRLPRPRPRPANGPRP, the “shrunken log2 fold change” value is reported as 0.109.
RRIRYRPPRLPRPRPRPHTEPRP was tested, and the “shrunken log2 fold change” value was -0.0196.
RRIRKRPPRLPRPRPRPGMWPRP was tested, and the “shrunken log2 fold change” value was 0.438.
RRIRKRPPRLPRPRPRPSWYPRP was tested, and the “shrunken log2 fold change” value was -0.519.
For RRIRVRPPRLPRPRPRPPIWPRP, the “shrunken log2 fold change” value was -0.109.
RRIRWRPPRLPRPRPRPVVGPRP was tested, and the “shrunken log2 fold change” value was 0.738.
In the case of RRIRRRPPRLPRPRPRPPSHPRP, the “shrunken log2 fold change” value is reported as 0.586.
In the case of RRIRLRPPRLPRPRPRPLNSPRP, the “shrunken log2 fold change” value is reported as -0.389.
RRIRERPPRLPRPRPRPANLPRP was tested, and the “shrunken log2 fold change” value was -0.254.
RRIRVRPPRLPRPRPRPHDEPRP was tested, and the “shrunken log2 fold change” value was 0.0655.
With RRIRCRPPRLPRPRPRPTMLPRP the “shrunken log2 fold change” value was -0.096.
In the case of RRIRKRPPRLPRPRPRPSIDPRP, the “shrunken log2 fold change” value is reported as 0.175.
RRIRYRPPRLPRPRPRPHKGPRP was tested, and the “shrunken log2 fold change” value was -0.29.
RRIRDRPPRLPRPRPRPTTEPRP was tested, and the “shrunken log2 fold change” value was 0.578.
In the case of RRIRKRPPRLPRPRPRPIDWPRP, the “shrunken log2 fold change” value is reported as 0.29.
With RRIRVRPPRLPRPRPRPQWCPRP the “shrunken log2 fold change” value was 0.0102.
In the case of RRIRARPPRLPRPRPRPDNWPRP, the “shrunken log2 fold change” value is reported as 0.283.
RRIRFRPPRLPRPRPRPEMAPRP was tested, and the “shrunken log2 fold change” value was 0.635.
RRIRDRPPRLPRPRPRPKNAPRP was tested, and the “shrunken log2 fold change” value was -0.0796.
RRIRARPPRLPRPRPRPLHNPRP was tested, and the “shrunken log2 fold change” value was 0.00865.
RRIRMRPPRLPRPRPRPRTVPRP was tested, and the “shrunken log2 fold change” value was 0.472.
In the case of RRIRRRPPRLPRPRPRPGEVPRP, the “shrunken log2 fold change” value is reported as 1.28.
For RRIRYRPPRLPRPRPRPSIVPRP, the “shrunken log2 fold change” value was -0.912.
With RRIRLRPPRLPRPRPRPNKEPRP the “shrunken log2 fold change” value was 0.0626.
In the case of RRIRARPPRLPRPRPRPDKYPRP, the “shrunken log2 fold change” value is reported as 1.5.
With RRIRNRPPRLPRPRPRPCIYPRP the “shrunken log2 fold change” value was -0.599.
For RRIRTRPPRLPRPRPRPDTLPRP, the “shrunken log2 fold change” value was 0.00154.
With RRIRPRPPRLPRPRPRPQYSPRP the “shrunken log2 fold change” value was -0.0482.
With RRIRVRPPRLPRPRPRPFYNPRP the “shrunken log2 fold change” value was -0.565.
In the case of RRIRVRPPRLPRPRPRPNLLPRP, the “shrunken log2 fold change” value is reported as -0.22.
For RRIRGRPPRLPRPRPRPGTVPRP, the “shrunken log2 fold change” value was 0.206.
RRIRCRPPRLPRPRPRPNEPPRP was tested, and the “shrunken log2 fold change” value was 0.0197.
With RRIRPRPPRLPRPRPRPNECPRP the “shrunken log2 fold change” value was -0.217.
In the case of RRIRIRPPRLPRPRPRPHFVPRP, the “shrunken log2 fold change” value is reported as -0.565.
In the case of RRIRKRPPRLPRPRPRPWQIPRP, the “shrunken log2 fold change” value is reported as 0.141.
In the case of RRIRGRPPRLPRPRPRPGAAPRP, the “shrunken log2 fold change” value is reported as 1.43.
RRIRTRPPRLPRPRPRPRFGPRP was tested, and the “shrunken log2 fold change” value was 0.319.
In the case of RRIRGRPPRLPRPRPRPTLAPRP, the “shrunken log2 fold change” value is reported as 1.27.
For RRIRRRPPRLPRPRPRPERMPRP, the “shrunken log2 fold change” value was 0.222.
For RRIRSRPPRLPRPRPRPCKDPRP, the “shrunken log2 fold change” value was -0.153.
RRIRERPPRLPRPRPRPCFDPRP was tested, and the “shrunken log2 fold change” value was -0.144.
In the case of RRIRYRPPRLPRPRPRPYPKPRP, the “shrunken log2 fold change” value is reported as -0.201.
With RRIRSRPPRLPRPRPRPSWIPRP the “shrunken log2 fold change” value was -0.363.
For RRIRYRPPRLPRPRPRPHPKPRP, the “shrunken log2 fold change” value was -0.0588.
RRIRERPPRLPRPRPRPHRDPRP was tested, and the “shrunken log2 fold change” value was -0.063.
For RRIRERPPRLPRPRPRPPHGPRP, the “shrunken log2 fold change” value was 0.19.
RRIRQRPPRLPRPRPRPTPGPRP was tested, and the “shrunken log2 fold change” value was 0.417.
In the case of RRIRRRPPRLPRPRPRPFNEPRP, the “shrunken log2 fold change” value is reported as -0.846.
In the case of RRIRPRPPRLPRPRPRPHFQPRP, the “shrunken log2 fold change” value is reported as 0.0551.
In the case of RRIRKRPPRLPRPRPRPTERPRP, the “shrunken log2 fold change” value is reported as 0.306.
In the case of RRIRRRPPRLPRPRPRPEIYPRP, the “shrunken log2 fold change” value is reported as 0.0166.
For RRIRSRPPRLPRPRPRPHQTPRP, the “shrunken log2 fold change” value was -0.066.
With RRIRARPPRLPRPRPRPYHWPRP the “shrunken log2 fold change” value was -0.0767.
In the case of RRIRLRPPRLPRPRPRPVFIPRP, the “shrunken log2 fold change” value is reported as -0.454.
RRIRQRPPRLPRPRPRPEIYPRP was tested, and the “shrunken log2 fold change” value was -0.145.
